Reference: US20070172423A1, “Composition and method for modulating vasculogenesis for angiogenesis” (priority 1998, published 2007)

Key:
[1] = system: human foreskin fibroblasts; test: Mitogenicity for fibroblasts ([3H]thymidine incorporation); assay type: cell-based; conditions: 3, 10 or 30 ng/ml, 24 hours
Procedure: The assay was performed essentially as described in Mori et al., J. Biol. Chem., 1991 266:21158-21164. Serum starved human foreskin fibroblasts were incubated for 24 hours with 1 ml of serum-free medium supplemented with 1 mg/ml BSA and 3 ng/ml, 10 ng/ml or 30 ng/ml of full length PDGF-CC (flPDGF-CC), truncated PDGF-CC (cPDGF-CC) or PDGF-AA in the presence of […] [3H]thymidine. After trichloroacetic acid (TCA) precipitation, the incorporation of [3H]thymidine into DNA was determined using a beta-counter. […] PDGF-AA is included in the experiment as a control.

[2] = molecular target: PDGF beta receptors (Homo sapiens, UniProt P09619); test: Competition with 125I-PDGF-BB for binding to PAE-1 cells expressing PDGF beta-receptor; parameters: expressed in transfected cells; conditions: 5 ng/ml 125I-PDGF-BB tracer, on ice 90 minutes
Procedure: Next, full length and truncated PDGF-C were tested for their capacity to bind to human PDGF receptors alpha and beta by analyzing their abilities to compete with PDGF-BB for binding to PDGF receptors. The binding experiments were performed on porcine aortic endothelial-1 (PAE-1) cells stably expressing the human PDGF receptors alpha and beta (Eriksson et al., EMBO J, 1992, 11, 543-550). Binding experiments were performed essentially as in Heldin et al. (EMBO J, 1988, 7:1387-1393). Different concentrations of human full-length and truncated PDGF-C, or human PDGF-BB were mixed with 5 ng/ml of ^125I-PDGF-BB in binding buffer (PBS containing 1 mg/ml of bovine serum albumin). Aliquots were incubated with the receptor expressing PAE-1 cells plated in 24-well culture dishes on ice for 90 minutes. After three washes with binding buffer, cell-bound 125]-PDGF-BB was extracted by lysis of cells in 20 mM Tris-HCl, pH 7.5, 10% glycerol, 1% Triton X-100. The amount of cell bound radioactivity was determined in a gamma-counter. A standard curve for the binding of ^125I-labeled PDGF BB homodimers to PAE-1 cells expressing PDGF alpha-receptor is shown in FIG. 18.

[3] = molecular target: PDGF alpha receptors (Homo sapiens, UniProt P16234); test: PDGF alpha-receptor phosphorylation in PAE cells; assay type: cell-based; parameters: expressed in transfected cells; conditions: 100 ng/ml
Procedure: To test if PDGF-C causes increased phosphorylation of the PDGF alpha-receptor, full length and truncated PDGF-C were tested for their capacity to bind to the PDGF alpha-receptor and stimulate increased phosphorylation. Serum-starved porcine aortic endothelial (PAE) cells stably expressing the human PDGF alpha-receptor were incubated on ice for 90 minutes with PBS supplemented with 1 mg/ml BSA and 10 ng/ml of PDGF-AA, 100 ng/ml of full length human PDGF-CC homodimers (flPDGF-CC), 100 ng/ml of truncated PDGF-CC homodimers (cPDGF-CC), or a mixture of 10 ng/ml of PDGF-AA and 100 ng/ml of truncated PDGF-CC. Full length and truncated PDGF-CC homodimers were produced as described above. Sixty minutes after the addition of the polypeptides, the cells were lysed in lysis buffer (20 mM tris-HCl, pH 7.5, 0.5% Triton X-100, 0.5% deoxycholic acid, 10 mM EDTA, 1 mM orthovanadate, 1 mM PMSF 1% Trasylol). […] Bound antibodies were detected using enhanced chemiluminescence (ECL, Amersham Inc). The filters were then stripped and reprobed with the PDGF alpha-receptor rabbit antisera, and the amount of receptors was determined by incubation with horseradish peroxidase-conjugated anti-rabbit antibodies. Bound antibodies were detected using enhanced chemiluminescence (ECL, Amersham Inc). […]

Sequence of PDGF beta receptors (P09619 33-1106): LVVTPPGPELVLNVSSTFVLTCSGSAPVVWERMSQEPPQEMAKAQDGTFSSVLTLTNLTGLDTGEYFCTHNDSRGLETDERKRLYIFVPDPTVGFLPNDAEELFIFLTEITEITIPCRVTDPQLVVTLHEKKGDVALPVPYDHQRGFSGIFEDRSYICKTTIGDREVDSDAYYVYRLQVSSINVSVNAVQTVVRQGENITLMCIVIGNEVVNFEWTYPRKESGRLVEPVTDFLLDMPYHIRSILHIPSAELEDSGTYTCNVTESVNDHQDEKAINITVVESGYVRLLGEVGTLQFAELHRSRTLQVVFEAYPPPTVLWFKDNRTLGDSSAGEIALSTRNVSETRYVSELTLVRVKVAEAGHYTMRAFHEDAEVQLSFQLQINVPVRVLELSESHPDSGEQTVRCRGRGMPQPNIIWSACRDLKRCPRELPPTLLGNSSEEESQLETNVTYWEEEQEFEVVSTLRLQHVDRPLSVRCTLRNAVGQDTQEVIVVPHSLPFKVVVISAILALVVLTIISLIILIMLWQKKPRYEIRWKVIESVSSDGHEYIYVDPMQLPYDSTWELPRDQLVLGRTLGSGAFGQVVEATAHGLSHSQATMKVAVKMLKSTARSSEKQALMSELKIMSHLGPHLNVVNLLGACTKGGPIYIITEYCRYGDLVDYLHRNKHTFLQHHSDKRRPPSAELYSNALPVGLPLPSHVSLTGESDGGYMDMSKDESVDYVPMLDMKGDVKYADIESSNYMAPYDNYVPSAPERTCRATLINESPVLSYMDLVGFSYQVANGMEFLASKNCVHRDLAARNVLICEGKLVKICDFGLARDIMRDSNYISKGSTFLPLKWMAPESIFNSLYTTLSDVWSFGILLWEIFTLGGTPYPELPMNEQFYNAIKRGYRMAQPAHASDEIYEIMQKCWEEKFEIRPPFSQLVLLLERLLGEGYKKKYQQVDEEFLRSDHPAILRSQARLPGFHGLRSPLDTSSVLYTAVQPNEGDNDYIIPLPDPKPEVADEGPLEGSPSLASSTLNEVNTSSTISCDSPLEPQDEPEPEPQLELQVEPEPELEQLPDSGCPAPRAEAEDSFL
Sequence of PDGF alpha receptors (P16234 24-1089): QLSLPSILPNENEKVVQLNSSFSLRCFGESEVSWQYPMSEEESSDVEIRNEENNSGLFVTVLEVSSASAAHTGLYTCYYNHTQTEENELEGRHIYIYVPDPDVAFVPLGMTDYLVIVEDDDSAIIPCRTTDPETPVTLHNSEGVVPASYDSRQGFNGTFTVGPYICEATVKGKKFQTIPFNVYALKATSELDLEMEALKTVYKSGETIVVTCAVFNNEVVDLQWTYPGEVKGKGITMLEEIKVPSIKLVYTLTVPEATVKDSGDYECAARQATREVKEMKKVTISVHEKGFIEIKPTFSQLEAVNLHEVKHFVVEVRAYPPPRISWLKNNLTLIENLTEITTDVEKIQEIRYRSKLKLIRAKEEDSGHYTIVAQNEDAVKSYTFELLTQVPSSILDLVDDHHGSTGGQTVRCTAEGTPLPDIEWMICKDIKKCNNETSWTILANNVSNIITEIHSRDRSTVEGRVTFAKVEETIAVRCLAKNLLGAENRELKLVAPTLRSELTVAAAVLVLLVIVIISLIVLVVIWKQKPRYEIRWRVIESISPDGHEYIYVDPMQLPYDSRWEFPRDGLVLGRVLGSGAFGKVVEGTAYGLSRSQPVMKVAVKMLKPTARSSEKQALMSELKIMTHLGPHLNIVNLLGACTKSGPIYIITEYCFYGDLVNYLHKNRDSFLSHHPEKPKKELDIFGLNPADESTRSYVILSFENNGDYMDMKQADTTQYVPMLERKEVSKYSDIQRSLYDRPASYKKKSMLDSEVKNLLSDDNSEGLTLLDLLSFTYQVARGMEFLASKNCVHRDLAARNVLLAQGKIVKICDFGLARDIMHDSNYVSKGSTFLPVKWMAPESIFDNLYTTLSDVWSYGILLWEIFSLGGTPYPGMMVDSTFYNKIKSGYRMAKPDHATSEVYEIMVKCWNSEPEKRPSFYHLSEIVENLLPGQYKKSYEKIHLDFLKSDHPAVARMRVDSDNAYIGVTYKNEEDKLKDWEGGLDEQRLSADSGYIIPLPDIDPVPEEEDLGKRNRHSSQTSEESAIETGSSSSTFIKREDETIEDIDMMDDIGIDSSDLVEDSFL

B1: PDGF-CC: recombinant human PDGF-CC core domain homodimer, residues 230-345 of full-length PDGF-C (SEQ ID NO:40), produced in baculovirus infected insect cells (protein)
chain: GRKSRVVDLNLLTEEVRLYSCTPRNFSVSIREELKRTDTIFWPGCLLVKRCGGNCACCLHNCNECQCVPSKVTKKYHEVLQLRPKTGVRGLHKSLTDVALEHHEECDCVCRGSTGG
modifications: homodimer; PDGF-C core domain
[1]
  mitogenic activity on fibroblasts: potent mitogen
[2]
  competition for binding to the PDGF beta-receptor: failed to compete
[3]
  PDGF alpha-receptor tyrosine phosphorylation: efficiently induced
